{
  "source": "paper PMC3695512",
  "about": "“Recognition of two distinct elements in the RNA substrate by the RNA-binding domain of the T. thermophilus DEAD box helicase Hera”",
  "conditions_in_all_cases": "protein: recombinant; label: 5'-fluorescein; hairpin with 5' single strand",
  "key": {"Hera_RBD R449A": {"target": "T1, Hera_RBD R449A (Thermus thermophilus, UniProt O07897 424-510, R449A)", "T1 sequence": "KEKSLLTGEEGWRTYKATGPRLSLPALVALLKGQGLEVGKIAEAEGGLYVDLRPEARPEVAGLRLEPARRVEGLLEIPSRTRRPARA", "experiment": "fluorescence anisotropy; 5 mM Mg2+; Anisotropy: 50 mM Tris/HCl pH 7.5, 150 mM NaCl, 5 mM MgCl2 (Fig 2), 25 C, 50 nM RNA; EMSA: same Tris/NaCl, 12% glycerol, 25 C; NMR: 25 mM Bis-Tris/HCl pH 6.0, 50 mM NaCl, 10% D2O, 37 C"}, "Hera_RBD R492A": {"target": "T2, Hera_RBD R492A (Thermus thermophilus, UniProt O07897 424-510, R492A)", "T2 sequence": "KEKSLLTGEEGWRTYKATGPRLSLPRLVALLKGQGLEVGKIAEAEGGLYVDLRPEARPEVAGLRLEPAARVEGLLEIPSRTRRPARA", "experiment": "fluorescence anisotropy; 5 mM Mg2+; Anisotropy: 50 mM Tris/HCl pH 7.5, 150 mM NaCl, 5 mM MgCl2 (Fig 2), 25 C, 50 nM RNA; EMSA: same Tris/NaCl, 12% glycerol, 25 C; NMR: 25 mM Bis-Tris/HCl pH 6.0, 50 mM NaCl, 10% D2O, 37 C"}, "Hera_RBD Q457C": {"target": "T3, Hera_RBD Q457C (Thermus thermophilus, UniProt O07897 424-510, Q457C)", "T3 sequence": "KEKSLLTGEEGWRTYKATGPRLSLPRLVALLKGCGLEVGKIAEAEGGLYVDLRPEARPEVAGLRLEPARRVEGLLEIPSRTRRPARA", "experiment": "fluorescence anisotropy; 5 mM Mg2+; Anisotropy: 50 mM Tris/HCl pH 7.5, 150 mM NaCl, 5 mM MgCl2 (Fig 2), 25 C, 50 nM RNA; EMSA: same Tris/NaCl, 12% glycerol, 25 C; NMR: 25 mM Bis-Tris/HCl pH 6.0, 50 mM NaCl, 10% D2O, 37 C"}, "Hera_RBD K439A": {"target": "T4, Hera_RBD K439A (Thermus thermophilus, UniProt O07897 424-510, K439A)", "T4 sequence": "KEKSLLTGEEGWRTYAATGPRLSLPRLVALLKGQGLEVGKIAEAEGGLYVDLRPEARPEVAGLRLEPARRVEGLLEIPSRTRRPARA", "experiment": "fluorescence anisotropy; 5 mM Mg2+; Anisotropy: 50 mM Tris/HCl pH 7.5, 150 mM NaCl, 5 mM MgCl2 (Fig 2), 25 C, 50 nM RNA; EMSA: same Tris/NaCl, 12% glycerol, 25 C; NMR: 25 mM Bis-Tris/HCl pH 6.0, 50 mM NaCl, 10% D2O, 37 C"}, "Hera_RBD S446C": {"target": "T5, Hera_RBD S446C (Thermus thermophilus, UniProt O07897 424-510, S446C)", "T5 sequence": "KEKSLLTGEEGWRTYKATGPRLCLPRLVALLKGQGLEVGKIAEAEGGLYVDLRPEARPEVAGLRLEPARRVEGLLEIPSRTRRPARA", "experiment": "fluorescence anisotropy; 5 mM Mg2+; Anisotropy: 50 mM Tris/HCl pH 7.5, 150 mM NaCl, 5 mM MgCl2 (Fig 2), 25 C, 50 nM RNA; EMSA: same Tris/NaCl, 12% glycerol, 25 C; NMR: 25 mM Bis-Tris/HCl pH 6.0, 50 mM NaCl, 10% D2O, 37 C"}, "Hera_RBD R487A": {"target": "T6, Hera_RBD R487A (Thermus thermophilus, UniProt O07897 424-510, R487A)", "T6 sequence": "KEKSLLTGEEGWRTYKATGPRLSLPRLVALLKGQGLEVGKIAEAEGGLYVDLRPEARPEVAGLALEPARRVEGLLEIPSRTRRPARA", "experiment": "fluorescence anisotropy; 5 mM Mg2+; Anisotropy: 50 mM Tris/HCl pH 7.5, 150 mM NaCl, 5 mM MgCl2 (Fig 2), 25 C, 50 nM RNA; EMSA: same Tris/NaCl, 12% glycerol, 25 C; NMR: 25 mM Bis-Tris/HCl pH 6.0, 50 mM NaCl, 10% D2O, 37 C"}, "Hera_RBD K455A": {"target": "T7, Hera_RBD K455A (Thermus thermophilus, UniProt O07897 424-510, K455A)", "T7 sequence": "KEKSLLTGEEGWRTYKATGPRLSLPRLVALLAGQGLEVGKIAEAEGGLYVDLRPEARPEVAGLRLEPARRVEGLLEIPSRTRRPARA", "experiment": "fluorescence anisotropy; 5 mM Mg2+; Anisotropy: 50 mM Tris/HCl pH 7.5, 150 mM NaCl, 5 mM MgCl2 (Fig 2), 25 C, 50 nM RNA; EMSA: same Tris/NaCl, 12% glycerol, 25 C; NMR: 25 mM Bis-Tris/HCl pH 6.0, 50 mM NaCl, 10% D2O, 37 C"}, "Hera_RBD R444A/R449A": {"target": "T8, Hera_RBD R444A/R449A (Thermus thermophilus, UniProt O07897 424-510, R444A;R449A)", "T8 sequence": "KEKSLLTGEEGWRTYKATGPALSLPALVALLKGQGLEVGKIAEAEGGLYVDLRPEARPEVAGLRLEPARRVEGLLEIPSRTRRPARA", "experiment": "fluorescence anisotropy; 5 mM Mg2+; Anisotropy: 50 mM Tris/HCl pH 7.5, 150 mM NaCl, 5 mM MgCl2 (Fig 2), 25 C, 50 nM RNA; EMSA: same Tris/NaCl, 12% glycerol, 25 C; NMR: 25 mM Bis-Tris/HCl pH 6.0, 50 mM NaCl, 10% D2O, 37 C"}, "Hera_RBD G462C": {"target": "T9, Hera_RBD G462C (Thermus thermophilus, UniProt O07897 424-510, G462C)", "T9 sequence": "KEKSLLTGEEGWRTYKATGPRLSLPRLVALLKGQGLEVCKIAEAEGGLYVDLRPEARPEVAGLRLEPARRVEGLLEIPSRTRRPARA", "experiment": "fluorescence anisotropy; 5 mM Mg2+; negligible effect; Anisotropy: 50 mM Tris/HCl pH 7.5, 150 mM NaCl, 5 mM MgCl2 (Fig 2), 25 C, 50 nM RNA; EMSA: same Tris/NaCl, 12% glycerol, 25 C; NMR: 25 mM Bis-Tris/HCl pH 6.0, 50 mM NaCl, 10% D2O, 37 C"}},
  "data": [
    {"binder": "GCAGGUCCCAAGGGUUGGGCUGUUCGCCCAUU (structured_RNA)", "note": "[32mer]", "values": [
      {"measurement": "binding signal", "setting": "Hera_RBD R449A", "value": "> 25", "unit": "fold Kd increase"},
      {"measurement": "binding signal", "setting": "Hera_RBD R492A", "value": "< 5", "unit": "fold Kd increase"},
      {"measurement": "binding signal", "setting": "Hera_RBD Q457C", "value": "< 5", "unit": "fold Kd increase"},
      {"measurement": "binding signal", "setting": "Hera_RBD K439A", "value": "< 5", "unit": "fold Kd increase"},
      {"measurement": "binding signal", "setting": "Hera_RBD S446C", "value": "< 5", "unit": "fold Kd increase"},
      {"measurement": "binding signal", "setting": "Hera_RBD R487A", "value": "< 5", "unit": "fold Kd increase"},
      {"measurement": "binding signal", "setting": "Hera_RBD K455A", "value": "< 5", "unit": "fold Kd increase"},
      {"measurement": "binding signal", "setting": "Hera_RBD R444A/R449A", "value": "> 25", "unit": "fold Kd increase"},
      {"measurement": "binding signal", "setting": "Hera_RBD G462C", "value": "< 5", "unit": "fold Kd increase"}
    ]}
  ]
}
